The assay addresses 3XHA-ankyrin-G F1609R (UniProt G5E8K5).
UniProt G5E8K5, sequence (G5E8K5 whole entry F1609R): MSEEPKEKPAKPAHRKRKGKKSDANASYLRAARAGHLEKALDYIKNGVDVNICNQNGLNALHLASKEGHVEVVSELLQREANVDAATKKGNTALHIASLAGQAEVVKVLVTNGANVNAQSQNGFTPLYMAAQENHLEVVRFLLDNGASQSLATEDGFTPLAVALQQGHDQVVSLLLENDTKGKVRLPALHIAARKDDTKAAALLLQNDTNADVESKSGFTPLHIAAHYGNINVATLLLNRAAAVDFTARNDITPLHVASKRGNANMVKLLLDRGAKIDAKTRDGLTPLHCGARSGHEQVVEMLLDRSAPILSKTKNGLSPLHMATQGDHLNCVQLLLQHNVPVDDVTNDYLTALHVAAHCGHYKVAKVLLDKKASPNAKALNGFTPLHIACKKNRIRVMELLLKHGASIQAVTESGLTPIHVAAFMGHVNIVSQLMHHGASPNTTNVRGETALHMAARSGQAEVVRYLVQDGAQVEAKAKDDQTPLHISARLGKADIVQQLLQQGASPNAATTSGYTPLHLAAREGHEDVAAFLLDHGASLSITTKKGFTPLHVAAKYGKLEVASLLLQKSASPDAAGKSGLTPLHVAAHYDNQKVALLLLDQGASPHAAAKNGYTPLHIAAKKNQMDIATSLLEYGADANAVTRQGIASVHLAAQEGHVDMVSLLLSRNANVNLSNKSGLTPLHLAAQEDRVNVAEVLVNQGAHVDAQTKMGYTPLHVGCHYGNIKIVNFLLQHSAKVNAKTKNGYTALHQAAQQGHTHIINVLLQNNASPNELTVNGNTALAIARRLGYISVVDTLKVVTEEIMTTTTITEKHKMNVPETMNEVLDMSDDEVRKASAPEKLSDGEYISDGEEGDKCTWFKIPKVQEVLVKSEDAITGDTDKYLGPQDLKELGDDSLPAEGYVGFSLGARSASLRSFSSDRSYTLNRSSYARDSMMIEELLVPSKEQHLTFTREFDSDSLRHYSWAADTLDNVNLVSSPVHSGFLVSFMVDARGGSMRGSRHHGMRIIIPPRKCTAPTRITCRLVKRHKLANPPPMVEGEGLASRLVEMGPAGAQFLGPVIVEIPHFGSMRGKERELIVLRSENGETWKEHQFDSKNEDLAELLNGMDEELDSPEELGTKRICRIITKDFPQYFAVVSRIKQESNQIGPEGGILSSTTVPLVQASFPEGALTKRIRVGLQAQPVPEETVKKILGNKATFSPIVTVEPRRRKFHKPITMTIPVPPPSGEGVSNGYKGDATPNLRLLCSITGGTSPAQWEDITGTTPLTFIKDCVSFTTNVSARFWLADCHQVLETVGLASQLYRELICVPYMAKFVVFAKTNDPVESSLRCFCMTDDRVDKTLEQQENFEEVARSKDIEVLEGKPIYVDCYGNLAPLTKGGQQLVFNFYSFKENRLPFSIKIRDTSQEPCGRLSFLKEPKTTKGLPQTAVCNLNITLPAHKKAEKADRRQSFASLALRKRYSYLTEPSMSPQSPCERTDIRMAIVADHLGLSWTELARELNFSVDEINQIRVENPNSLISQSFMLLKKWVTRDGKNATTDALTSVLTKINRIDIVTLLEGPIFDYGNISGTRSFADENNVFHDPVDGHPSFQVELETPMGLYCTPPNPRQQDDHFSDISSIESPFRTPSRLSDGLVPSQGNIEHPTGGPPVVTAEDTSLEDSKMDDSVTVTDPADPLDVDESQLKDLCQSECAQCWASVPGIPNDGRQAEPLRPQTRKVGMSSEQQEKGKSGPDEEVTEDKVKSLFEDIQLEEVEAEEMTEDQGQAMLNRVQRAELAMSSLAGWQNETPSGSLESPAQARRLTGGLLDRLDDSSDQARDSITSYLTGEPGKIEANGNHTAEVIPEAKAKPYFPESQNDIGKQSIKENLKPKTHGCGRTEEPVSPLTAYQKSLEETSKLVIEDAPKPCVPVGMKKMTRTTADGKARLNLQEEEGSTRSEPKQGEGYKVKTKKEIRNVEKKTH

Consider “Homer1b/c, endogenous (from UniProt Q9Z2Y3 1-366) (natural protein)”, for which the FRAP in dendritic spines of primary cortical neurons: mobile fraction of GFP-ankyrin-G^F1609R against GFP-ankyrin-G^WT, 200 s after photobleaching (GFP-tagged forms of the constructs) turned out to be 22.4%.

These data come from paper PMC8254828.
